In patent US20020119153A1 (University of Texas, published 2002):

B1: monoclonal antibody 2C3 (ATCC PTA 1595) (antibody, V domains shown)
VH: QVQLQESGPELVKPGASVKMSCKASGYTFTSYVFHWVKQKPGQGLEWIGYINPYNDVTKYNEKFKGKATLTSDKSSSTAYMELSSLTSEDSAVYYCASYYGSSYGYYAMDDWGQGTTVTVSS
VL: DIQLTQSPASLSVSAGEKVTMSCKSSQSLLNSGNQKNYLAWYQQKPGQPPKLLIHGASTRESGVPDRFTGSGSGTDFTLTISSVQAEDLAVYYCQNDYSYPLTFGAGTKLELKR
notes: also called 2C3 IgG
B2: 2C3-GUS conjugate (other)
VH: KLQVQLQESGPELVKPGASVKMSCKASGYTFTSYVFHWVKQKPGQGLEWIGYINPYNDVTKYNEKFKGKATLTSDKSSSTAYMELSSLTSEDSAVYYCASYYGSSYGYYAMDDWGQGTTVTVSSGGG
VL: DIQLTQSPASLSVSAGEKVTMSCKSSQSLLNSGNQKNYLAWYQQKPGQPPKLLIHGASTRESGVPDRFTGSGSGTDFTLTISSVQAEDLAVYYCQNDYSYPLTFGAGTKLELKRL
chain: MLRPVETPTREIKKLDGLWAFSLDRENCGIDQRWWESALQESRAIAVPGSFNDQFADADIRNYAGNVWYQREVFIPKGWAGQRIVLRFDAVTHYGKVWVNNQEVMEHQGGYTPFEADVTPYVIAGKSVRITVCVNNELNWQTIPPGMVITDENGKKKQSYFHDFFNYAGIHRSVMLYTTPNTWVDDITVVTHVAQDCNHASVDWQVVANGDVSVELRDADQQVVATGQGTSGTLQVVNPHLWQPGEGYLYELCVTAKSQTECDIYPLRVGIRSVAVKGEQFLINHKPFYFTGFGRHEDADLRGKGFDNVLMVHDHALMDWIGANSYRTSHYPYAEEMLDWADEHGIVVIDETAAVGFNLSLGIGFEAGNKPKELYSEEAVNGETQQAHLQAIKELIARDKNHPSVVMWSIANEPDTRPQGAREYFAPLAEATRKLDPTRPITCVNVMFCDAHTDTISDLFDVLCLNRYYGWYVQSGDLETAEKVLEKELLAWQEKLHQPIIITEYGVDTLAGLHSMYTDMWSEEYQCAWLDMYHRVFDRVSAVVGEQVWNFADFATSQGILRVGGNKKGIFTRDRKPKSAAFLLQKRWTGMNFGEKPQQGGKQ
modifications: SATA-modified, deacetylated; SMCC-modified IgG, linked by thioether to SATA-modified GUS
notes: Chemical conjugate of 2C3 IgG (mouse IgG2a,k) and 6-His GUS; GUS runs as a tetramer of about 300 kDa on gel filtration; not shown: N-terminal 6x histidine tag encoded by vector H6pQE60

Columns and labels:
[1] = biological target: T1, recombinant human VEGF165 (human, UniProt P15692 27-191); assay: printed as 'Affinity'; estimated by ELISA and surface plasmon resonance analysis
T1 construct: mature; Secreted VEGF is described as an obligate dimer; also called free VEGF; VEGF-biotin

VEGF:sFlk-1 complex = biological target: T2, VEGF:sFlk-1 complex (human; mouse, UniProt P15692 27-191; P35918 20-762, limits assumed, biotinylated); assay: capture ELISA: biotinylated sFlk-1 complexed with VEGF titrated onto wells coated with the antibody; concentration giving 50% maximal binding
T2 construct: mature;extracellular domain; also called VEGF:receptor complex

mouse VEGF = biological target: T3, mouse VEGF (mouse, UniProt Q00731-2 27-190, limits assumed); assay: indirect ELISA
T3 construct: In indirect ELISA (source not described) and in mouse 3LL tumor sections
T3 sequence (looked up): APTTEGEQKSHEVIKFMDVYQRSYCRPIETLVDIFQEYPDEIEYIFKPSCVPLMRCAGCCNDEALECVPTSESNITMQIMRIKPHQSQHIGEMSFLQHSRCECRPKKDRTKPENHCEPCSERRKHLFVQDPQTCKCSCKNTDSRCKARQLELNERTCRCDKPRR

[2] = biological target: T1, recombinant human VEGF165; assay: capture ELISA: biotinylated VEGF titrated onto wells coated with the antibody, peroxidase-avidin; concentration giving 50% maximal binding
[3] = biological target: T1, recombinant human VEGF165; assay: ELISA on VEGF coated wells, HRP-labelled anti-mouse IgG and OPD

T2 sequence (P35918 20-762 limits assumed, one chain of several): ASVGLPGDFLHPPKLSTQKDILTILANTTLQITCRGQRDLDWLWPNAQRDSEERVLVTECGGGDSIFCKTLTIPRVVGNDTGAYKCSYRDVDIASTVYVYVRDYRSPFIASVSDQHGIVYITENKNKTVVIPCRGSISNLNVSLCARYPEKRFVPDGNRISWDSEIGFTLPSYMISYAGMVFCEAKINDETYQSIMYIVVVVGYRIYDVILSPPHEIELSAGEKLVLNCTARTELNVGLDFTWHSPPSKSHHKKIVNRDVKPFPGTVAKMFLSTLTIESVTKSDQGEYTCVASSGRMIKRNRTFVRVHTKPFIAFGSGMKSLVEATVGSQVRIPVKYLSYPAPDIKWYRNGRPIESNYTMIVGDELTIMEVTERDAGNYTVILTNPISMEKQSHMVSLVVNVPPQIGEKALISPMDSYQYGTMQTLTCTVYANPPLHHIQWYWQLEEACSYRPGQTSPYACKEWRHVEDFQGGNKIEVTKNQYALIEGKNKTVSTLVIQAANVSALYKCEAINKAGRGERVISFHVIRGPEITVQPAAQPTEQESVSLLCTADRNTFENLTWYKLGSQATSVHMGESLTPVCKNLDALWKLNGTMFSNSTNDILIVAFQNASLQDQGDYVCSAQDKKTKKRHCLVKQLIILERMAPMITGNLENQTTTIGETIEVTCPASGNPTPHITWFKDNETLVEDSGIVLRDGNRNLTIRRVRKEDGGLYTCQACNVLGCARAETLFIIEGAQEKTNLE

Binder	Kd [1] [nM]	EC50 (VEGF:sFlk-1 complex) [nM]	binding result (mouse VEGF)	EC50 [2] [nM]	EC50 [3] [nM]
B1	1	150	no binding	1	
B2					0.1
